{"source": "paper PMC3641235", "test_system": "HDM2 (C-terminal HA);p53 (human;human?)", "assay": "pull-down (anti-HA beads, real-time PCR)", "settings": "100 uM Nutlin-3A (disrupts p53-HDM2); Anti-HA protein G beads; blocked in PBST-3% BSA, IVT HDM2 30 min, Nutlin 1 h, IVT p53 1 h; washes PBST-0.1% BSA then PBS; temperature and pH not given"}
{"substance": "2ConA-HDM2 DNA template (two CONA p53 response elements)", "values": [{"measurement": "binding signal (fold reduction of DNA pulled down)", "result": 383}]}
